From US20140286957A1 (Teva, published 2014)
Positions count from the first letter of the chain named. Names may count otherwise. Like-named read-outs stand apart in the source and are kept apart here.

Experiments:
[1] = molecular target: T1, CD1d tetramer loaded with α-GalCer (ProImmune) (UniProt P15813 20-301, limits assumed); test: flow cytometry, inhibition of CD1d tetramer (10 nM) binding to NKTCR on J.RT3-T3.5 cells
T1 construct: Bought reagent; also called fluorochrome-conjugated CD1d tetramer
T1 sequence (looked up): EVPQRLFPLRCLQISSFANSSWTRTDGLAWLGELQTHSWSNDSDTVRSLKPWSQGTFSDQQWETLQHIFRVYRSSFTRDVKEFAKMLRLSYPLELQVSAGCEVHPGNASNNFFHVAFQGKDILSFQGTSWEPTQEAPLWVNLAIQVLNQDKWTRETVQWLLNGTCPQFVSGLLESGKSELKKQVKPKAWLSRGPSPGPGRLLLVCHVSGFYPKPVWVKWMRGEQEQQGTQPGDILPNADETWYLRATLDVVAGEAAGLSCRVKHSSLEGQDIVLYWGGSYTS

Human CD1d on cells [2] = molecular target: T2, Human CD1d on cells (human, UniProt P15813 20-335); test: cell-based or functional assay
T2 sequence (looked up): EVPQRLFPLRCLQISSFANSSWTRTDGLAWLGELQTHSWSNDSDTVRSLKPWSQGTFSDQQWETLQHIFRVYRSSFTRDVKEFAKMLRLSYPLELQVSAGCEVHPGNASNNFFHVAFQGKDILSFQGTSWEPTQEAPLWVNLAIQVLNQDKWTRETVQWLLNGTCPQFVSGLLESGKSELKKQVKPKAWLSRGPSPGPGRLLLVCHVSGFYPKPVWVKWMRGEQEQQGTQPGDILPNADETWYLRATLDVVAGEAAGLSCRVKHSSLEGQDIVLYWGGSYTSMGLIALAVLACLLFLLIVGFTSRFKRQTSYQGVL

Human CD1d on cells [3] = molecular target: T2, Human CD1d on cells; test: cell-based or functional assay; remark: listed apart in the source
[4] = molecular target: Cynomolgus macaque CD1d on cells (cynomolgus macaque); test: flow cytometry, biotinylated antibody and streptavidin-PE on cynomolgus PBMC, gated live cells
Human CD1d on cells [5] = molecular target: T2, Human CD1d on cells; test: cell-based or functional assay; remark: listed apart in the source
Human CD1d on cells [6] = molecular target: T2, Human CD1d on cells; test: cell-based or functional assay; remark: listed apart in the source
Human CD1d/β2M [7] = molecular target: T3, Human CD1d/β2M (human, UniProt P15813 20-301; P61769 21-119); test: SPR, Protein A purified IgG
T3 construct: also called hCD1d; recombinant human CD1d

Human CD1d on cells [8] = molecular target: T2, Human CD1d on cells; test: cell-based or functional assay; remark: listed apart in the source
Human CD1d/β2M [9] = molecular target: T3, Human CD1d/β2M; test: SPR, transfection supernatant
Human CD1d on cells [10] = molecular target: T2, Human CD1d on cells; test: cell-based or functional assay; remark: listed apart in the source

anti-CD1d antibody 42 (BD Biosciences)
EC50 [1]: 1.44 µg/mL | NKT IFN-γ EC50 (moDC) (Human CD1d on cells [2]): 0.116 µg/mL | NKT IL-13 EC50 (moDC) (Human CD1d on cells [2]): 0.0175 µg/mL | IFN-γ EC50 (C24:1 βGluCer, moDC) (Human CD1d on cells [3]): 0.139 µg/mL | IFN-γ EC50 (THP-1) (Human CD1d on cells [3]): 0.429 µg/mL | IFN-γ EC50 (primary CD14+ cells) (Human CD1d on cells [3]): 1.39 µg/mL | IL-2 release EC50 (U-937 + NKTCR cell line) (Human CD1d on cells [3]): 0.111 µg/mL | IL-4 EC50 (C24:1 βGluCer, moDC) (Human CD1d on cells [3]): 0.133 µg/mL | IL-4 EC50 (THP-1) (Human CD1d on cells [3]): 0.0761 µg/mL | IL-4 EC50 (primary CD14+ cells) (Human CD1d on cells [3]): 0.186 µg/mL | IL-5 EC50 (C24:1 βGluCer, moDC) (Human CD1d on cells [3]): 0.0819 µg/mL | IL-5 EC50 (THP-1) (Human CD1d on cells [3]): 0.0647 µg/mL | IL-5 EC50 (primary CD14+ cells) (Human CD1d on cells [3]): 0.108 µg/mL | IL-13 EC50 (C24:1 βGluCer, moDC) (Human CD1d on cells [3]): 0.0523 µg/mL | IL-13 EC50 (THP-1) (Human CD1d on cells [3]): 0.154 µg/mL | IL-13 EC50 (primary CD14+ cells) (Human CD1d on cells [3]): 0.844 µg/mL | NKT IFN-γ EC50 (moDC) (Human CD1d on cells [3]): > 1 µg/mL | NKT IL-4 EC50 (moDC) (Human CD1d on cells [3]): 0.137 µg/mL | NKT IL-5 EC50 (moDC) (Human CD1d on cells [3]): 0.287 µg/mL | TNF-α EC50 (C24:1 βGluCer, moDC) (Human CD1d on cells [3]): 0.00569 µg/mL

irrelevant specificity negative control antibody (human IgG1)
percent CD1d-positive cells, Donor 1 [4]: 4.14% | percent CD1d-positive cells, Donor 2 [4]: 4.22%

anti-CD1d antibody 51.1 (eBioscience)
EC50 [1]: 0.775 µg/mL | IFN-γ EC50 (C24:1 βGluCer, moDC) (Human CD1d on cells [3]): 0.112 µg/mL | IFN-γ EC50 (primary CD14+ cells) (Human CD1d on cells [3]): 0.168 µg/mL | IL-2 release EC50 (U-937 + NKTCR cell line) (Human CD1d on cells [3]): 0.0773 µg/mL | IL-4 EC50 (C24:1 βGluCer, moDC) (Human CD1d on cells [3]): 0.113 µg/mL | IL-5 EC50 (C24:1 βGluCer, moDC) (Human CD1d on cells [3]): 0.0864 µg/mL | IL-13 EC50 (C24:1 βGluCer, moDC) (Human CD1d on cells [3]): 0.0668 µg/mL | IL-13 EC50 (primary CD14+ cells) (Human CD1d on cells [3]): 0.222 µg/mL | NKT IFN-γ EC50 (moDC) (Human CD1d on cells [3]): > 1 µg/mL | TNF-α EC50 (C24:1 βGluCer, moDC) (Human CD1d on cells [3]): 0.0297 µg/mL

B1: 402.8.53 (antibody, IgG4, V domains shown)
VH: QVQLQESGPGLVKPSETLSLTCAVYGGSFSGYYWSWIRQPPGKGLEWIGEINHAGSTNYNPSLKSRVTISVDTSKNQFSLKLSSVTAADTAVYYCARGEIYDFWKSYLDVWGKGTTVTVSS
VL: QTVVTQEPSLTVSPGGTVTLTCASSSGAVSSGNFPNWFQQKPGQAPRALIFSASNKHSWTPARFSGSLLGGKAVLTLSGVQPEDEAEYYCLLYFGDTQLGVFGGGTKVTVLG
NKT IFN-γ EC50 (moDC) (Human CD1d on cells [5]): 0.000658 µg/mL | NKT IL-13 EC50 (moDC) (Human CD1d on cells [5]): 0.00152 µg/mL | NKT IFN-γ EC50 (moDC) (Human CD1d on cells [6]): 0.277 µg/mL | NKT IL-4 EC50 (moDC) (Human CD1d on cells [6]): 0.105 µg/mL

B2: 402.8.60 (antibody, IgG4, V domains shown)
VH: B1 VH with K13R, A54S, W104Y, K105N, L108M
VL: B1 VL
notes: IgG4 (S228P)
NKT IFN-γ EC50 (moDC) (Human CD1d on cells [5]): 0.000244 µg/mL | NKT IL-13 EC50 (moDC) (Human CD1d on cells [5]): 0.000189 µg/mL | NKT IFN-γ EC50 (moDC) (Human CD1d on cells [6]): 0.0247 µg/mL | NKT IL-4 EC50 (moDC) (Human CD1d on cells [6]): 0.0268 µg/mL | Kd (Human CD1d/β2M [7]): 0.198 nM

B3: 402.8.84 (antibody, IgG4, V domains shown)
VH: B1 VH with W104Y
VL: B1 VL
notes: IgG4 (S228P)
NKT IFN-γ EC50 (moDC) (Human CD1d on cells [5]): 0.000516 µg/mL | NKT IL-13 EC50 (moDC) (Human CD1d on cells [5]): 0.000663 µg/mL | NKT IFN-γ EC50 (moDC) (Human CD1d on cells [6]): 0.0306 µg/mL | NKT IL-4 EC50 (moDC) (Human CD1d on cells [6]): 0.000593 µg/mL | Kd (Human CD1d/β2M [7]): 0.587 nM

B4: 402.8.86 (antibody, IgG4, V domains shown)
VH: B1 VH with W104Y, K105N, L108M
VL: B1 VL
notes: IgG4 (S228P)
NKT IFN-γ EC50 (moDC) (Human CD1d on cells [6]): 0.0143 µg/mL | NKT IL-4 EC50 (moDC) (Human CD1d on cells [6]): 0.000721 µg/mL | Kd (Human CD1d/β2M [7]): 0.357 nM

B5: 402.8.87 (antibody, IgG4, V domains shown)
VH: B1 VH with W104Y, L108M
VL: B1 VL
notes: IgG4 (S228P)
NKT IFN-γ EC50 (moDC) (Human CD1d on cells [6]): 0.0259 µg/mL | NKT IL-4 EC50 (moDC) (Human CD1d on cells [6]): 0.00101 µg/mL | Kd (Human CD1d/β2M [7]): 0.344 nM

B6: 401.11.24 (antibody, IgG4, V domains shown)
VH: QVQLVGSGGGLVKPGRSLRLSCAASGFTFDDYAMHWVRQAPGKGLEWVATIIWNSAIIGYADSVKGRFIVSRDNAKNSLYLQMNSLRAEDTALYYCAKDMCSSSGCPDGYFDSWGQGTLVTVSS
VL: DIQMTQSPSSVSASVGDRVTITCRASQHISSWLAWYQQKPGKAPKLLIYAASSLQSGVSSRFSGSGSGTDFTLTISSLQPEDFATYYCQQANRFPLTFGGGTKLEIKR
notes: IgG4 (S228P)
NKT IFN-γ EC50 (THP-1) (Human CD1d on cells [8]): 0.00426 µg/mL | NKT IFN-γ EC50 (moDC) (Human CD1d on cells [8]): 0.00036 µg/mL | Kd (Human CD1d/β2M [9]): 0.644 nM

B7: 401.11.26 (antibody, IgG4, V domains shown)
VH: B6 VH with Q1E, G6E, K13Q, T91M
VL: B6 VL with K45N, S59P
notes: IgG4 (S228P)
NKT IFN-γ EC50 (THP-1) (Human CD1d on cells [8]): 0.00325 µg/mL | NKT IFN-γ EC50 (moDC) (Human CD1d on cells [8]): 0.0013 µg/mL | Kd (Human CD1d/β2M [9]): 0.855 nM

B8: 401.11.28 (antibody, IgG4, V domains shown)
VH: B6 VH
VL: B6 VL with K45N, S59P
NKT IFN-γ EC50 (THP-1) (Human CD1d on cells [8]): 0.00142 µg/mL | NKT IFN-γ EC50 (moDC) (Human CD1d on cells [8]): 0.000294 µg/mL

B9: 401.11.86 (antibody, IgG4, V domains shown)
VH: B6 VH with T91M, S104G
VL: B6 VL with K45N
NKT IFN-γ EC50 (THP-1) (Human CD1d on cells [10]): 0.00129 µg/mL | NKT IFN-γ EC50 (moDC) (Human CD1d on cells [10]): 0.000359 µg/mL | NKT IL-4 EC50 (THP-1) (Human CD1d on cells [10]): 0.000509 µg/mL | NKT IL-4 EC50 (moDC) (Human CD1d on cells [10]): 0.00174 µg/mL

B10: 401.11.19 (antibody, V domains shown)
VH: B6 VH with T91M
VL: DIQMTQSPSSVSASVGDRVTITCRASQHISSWLAWYQQKPGKAPKLLIYAASSLQSGVSSRFSGSGSGTDFTLTISSLQPEDFATYYCQQANRFPLTFGGGTKLEIK
Kd (Human CD1d/β2M [9]): 0.667 nM

B11: 401.11.15 (antibody, V domains shown)
VH: B6 VH with Q1E, G6E, T91M
VL: B10 VL with K45N
Kd (Human CD1d/β2M [9]): 0.507 nM

B12: 401.11.16 (antibody, V domains shown)
VH: B6 VH with Q1E, G6E, K13Q, T91M
VL: B10 VL with K45N
binding result (Human CD1d/β2M [9]): no binding

B13: 401.11.18 (antibody, V domains shown)
VH: B6 VH
VL: B10 VL with K45N
Kd (Human CD1d/β2M [9]): 9.97 nM

B14: 401.11.20 (antibody, V domains shown)
VH: B6 VH with T91M
VL: B10 VL with K45N, S59P
Kd (Human CD1d/β2M [9]): 0.977 nM

B15: 401.11.21 (antibody, V domains shown)
VH: B6 VH with Q1E, G6E, T91M
VL: B10 VL
Kd (Human CD1d/β2M [9]): 0.951 nM

B16: 401.11.22 (antibody, V domains shown)
VH: B6 VH with Q1E, G6E, K13Q, T91M
VL: B10 VL
Kd (Human CD1d/β2M [9]): 0.754 nM

B17: 401.11.27 (antibody, V domains shown)
VH: B6 VH with I69T, V70I, T91M
VL: B10 VL with K45N, S59P
binding result (Human CD1d/β2M [9]): no binding
